Experimental findings from patent US8043804 (TRUSTEES OF COLUMBIA UNIVERSITY IN THE CITY OF NEW YORK, dated 2011) are described below.

Experiment [1] deals with T1, DBC1 (Deleted in Breast Cancer 1) protein (human, UniProt Q8N163 1-923).
T1 construct: Endogenous protein of HeLa, U2OS and 293 cells (about 140 kDa band), or expressed from a vector without a stated tag in H1299 cells; also called endogenous DBC1
The experiment can be described thus: anti-Flag immunoprecipitation from transfected 293 cells, Western blot for endogenous DBC1. As to the method: (§1) Next, whether SIRT1 binds DBC1 in vitro was tested. […] The N-terminus of DBC1 as the SIRT1 binding domain was identified (FIG. 7). Since the enzymatic core sequence represents the most conserved region of mammalian SIRT protein family, whether DBC1 interacts with other members of this family was determined. Flag-tagged derivatives of the seven human SIRT polypeptides (SIRT1-7) were each expressed in 293 cells and extracts of the transfected cells were immunoprecipitated with the α-Flag antibody. […] Although similar expression levels for all seven Flag-SIRT polypeptides were detected, none of the other SIRT proteins (SIRT2, SIRT3, SIRT4, SIRT5, SIRT6 and SIRT7) were able to co-immunoprecipitate DBC1 (lanes 3-8, FIG. 2d).

Experiment [2] addresses T2, ^35S-labeled in vitro-translated DBC1 (human, UniProt Q8N163 1-923, labelled by incorporation of ^35S-Methionine).
T2 construct: also called ^35S-DBC1; pCIN4-DBC1 product
The experiment can be described thus: GST pull-down, autoradiography. As to the method:
as §1

The target of experiment [3] is T1, DBC1 (Deleted in Breast Cancer 1) …. The experiment in a line: M2 immunoprecipitation of Flag-tagged SIRT family members from 293 cells, Western blot (FIG. 2d). As to the method:
as §1

The target in experiment [4] is T3, SIRT1 (Silencing mating type information regulator 2 homolog) (human, UniProt Q96EB6 2-747).
T3 construct: Endogenous protein of HeLa and U2OS cells, or expressed from a vector without a stated tag in H1299 cells; also called endogenous SIRT1; Sir2
T3 sequence (looked up): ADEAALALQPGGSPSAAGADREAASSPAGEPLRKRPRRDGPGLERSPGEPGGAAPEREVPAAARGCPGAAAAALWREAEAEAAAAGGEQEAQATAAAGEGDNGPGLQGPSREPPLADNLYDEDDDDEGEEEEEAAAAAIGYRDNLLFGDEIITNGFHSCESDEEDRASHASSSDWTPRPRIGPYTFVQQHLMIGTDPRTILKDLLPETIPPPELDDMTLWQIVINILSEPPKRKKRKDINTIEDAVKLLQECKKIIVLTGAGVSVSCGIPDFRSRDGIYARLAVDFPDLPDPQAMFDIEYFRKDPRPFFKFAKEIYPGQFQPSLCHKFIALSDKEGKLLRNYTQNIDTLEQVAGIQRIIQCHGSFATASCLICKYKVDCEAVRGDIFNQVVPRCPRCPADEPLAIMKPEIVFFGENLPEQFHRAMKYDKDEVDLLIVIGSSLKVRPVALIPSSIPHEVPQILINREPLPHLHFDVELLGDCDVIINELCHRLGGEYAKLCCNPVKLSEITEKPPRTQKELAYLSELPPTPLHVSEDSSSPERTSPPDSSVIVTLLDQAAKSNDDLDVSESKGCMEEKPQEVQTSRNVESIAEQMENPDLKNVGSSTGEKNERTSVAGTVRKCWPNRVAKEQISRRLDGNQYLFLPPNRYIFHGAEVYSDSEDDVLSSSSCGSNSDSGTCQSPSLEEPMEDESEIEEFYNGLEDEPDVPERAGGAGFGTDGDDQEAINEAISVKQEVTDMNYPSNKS
The experiment in a line: affinity-purified SIRT1 complexes from HeLa extracts, Western blot. As to the method:
Figure 1: FIG. 1. Identification of DBC1 as a major component of the SIRT1 complexes in human cells. (a) Colloidal-blue staining of affinity-purified SIRT1 complexes from HeLa extracts with the α-SIRT1 antibody column (lane 2) and a control elute from the same extract with a control antibody column (lane 3). Specific SIRT1 interacting proteins were analyzed by mass spectrometry. (b) Western Blot of input (lane 1), control IP (lane 2) and α-SIRT1 antibody IP (lane 3) for the known SIRT1 interacting protein 14-3-3σ (lower panel) and SIRT1 (upper panel) to verify specificity of the analyzed SIRT1 complex. (c) Schematic representation of the DBC1 protein.

T1 sequence (Q8N163 whole entry): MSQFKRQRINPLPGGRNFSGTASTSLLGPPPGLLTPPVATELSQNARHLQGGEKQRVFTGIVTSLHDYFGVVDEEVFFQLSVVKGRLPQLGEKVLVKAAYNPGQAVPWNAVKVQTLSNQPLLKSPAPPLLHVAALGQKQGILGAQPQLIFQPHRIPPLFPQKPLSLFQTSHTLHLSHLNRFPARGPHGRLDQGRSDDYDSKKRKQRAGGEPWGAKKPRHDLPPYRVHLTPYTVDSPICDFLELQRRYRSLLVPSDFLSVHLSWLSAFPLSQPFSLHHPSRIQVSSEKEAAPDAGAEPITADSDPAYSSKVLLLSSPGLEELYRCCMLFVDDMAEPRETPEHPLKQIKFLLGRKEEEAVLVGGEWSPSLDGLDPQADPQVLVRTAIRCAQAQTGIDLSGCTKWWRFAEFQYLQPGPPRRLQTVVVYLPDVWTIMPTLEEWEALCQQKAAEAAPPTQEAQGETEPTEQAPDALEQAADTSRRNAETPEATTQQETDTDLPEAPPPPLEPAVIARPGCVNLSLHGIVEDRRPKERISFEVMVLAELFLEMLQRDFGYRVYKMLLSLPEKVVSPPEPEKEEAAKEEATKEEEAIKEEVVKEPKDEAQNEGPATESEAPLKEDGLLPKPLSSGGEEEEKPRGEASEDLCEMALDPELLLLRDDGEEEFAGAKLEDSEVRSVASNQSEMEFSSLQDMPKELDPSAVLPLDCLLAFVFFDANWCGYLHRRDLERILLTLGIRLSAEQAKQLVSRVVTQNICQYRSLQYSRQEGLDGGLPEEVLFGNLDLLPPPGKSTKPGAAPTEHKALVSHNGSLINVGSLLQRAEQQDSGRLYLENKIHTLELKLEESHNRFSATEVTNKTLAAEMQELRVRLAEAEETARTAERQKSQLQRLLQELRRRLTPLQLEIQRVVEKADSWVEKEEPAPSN
T2 sequence (Q8N163 whole entry): as above

B1: Flag-SIRT7 (enzyme, human, UniProt Q9NRC8 1-400, looked up)
chain: MAAGGLSRSERKAAERVRRLREEQQRERLRQVSRILRKAAAERSAEEGRLLAESADLVTELQGRSRRREGLKRRQEEVCDDPEELRGKVRELASAVRNAKYLVVYTGAGISTAASIPDYRGPNGVWTLLQKGRSVSAADLSEAEPTLTHMSITRLHEQKLVQHVVSQNCDGLHLRSGLPRTAISELHGNMYIEVCTSCVPNREYVRVFDVTERTALHRHQTGRTCHKCGTQLRDTIVHFGERGTLGQPLNWEAATEAASRADTILCLGSSLKVLKKYPRLWCMTKPPSRRPKLYIVNLQWTPKDDWAALKLHGKCDDVMRLLMAELGLEIPAYSRWQDPIFSLATPLRAGEEGSHSRKSLCRSREEAPPGDRGAPLSSAPILGGWFGRGCTKRTKRKKVT
notes: not shown: Flag tag
B1: the binding result in experiment [1] was “no binding”.

B2: GST-SIRT1-CT (other, human, UniProt Q96EB6 500-747, looked up)
chain: LCCNPVKLSEITEKPPRTQKELAYLSELPPTPLHVSEDSSSPERTSPPDSSVIVTLLDQAAKSNDDLDVSESKGCMEEKPQEVQTSRNVESIAEQMENPDLKNVGSSTGEKNERTSVAGTVRKCWPNRVAKEQISRRLDGNQYLFLPPNRYIFHGAEVYSDSEDDVLSSSSCGSNSDSGTCQSPSLEEPMEDESEIEEFYNGLEDEPDVPERAGGAGFGTDGDDQEAINEAISVKQEVTDMNYPSNKS
notes: domain: C-terminal; also called C-terminus of SIRT1; C-terminal domain of SIRT1; not shown: glutathione S-transferase (GST) fusion partner
B2: in experiment [2], the binding result is “no binding”.

B3: Flag-SIRT2 (enzyme, human, UniProt Q8IXJ6 1-389, looked up)
chain: MAEPDPSHPLETQAGKVQEAQDSDSDSEGGAAGGEADMDFLRNLFSQTLSLGSQKERLLDELTLEGVARYMQSERCRRVICLVGAGISTSAGIPDFRSPSTGLYDNLEKYHLPYPEAIFEISYFKKHPEPFFALAKELYPGQFKPTICHYFMRLLKDKGLLLRCYTQNIDTLERIAGLEQEDLVEAHGTFYTSHCVSASCRHEYPLSWMKEKIFSEVTPKCEDCQSLVKPDIVFFGESLPARFFSCMQSDFLKVDLLLVMGTSLQVQPFASLISKAPLSTPRLLINKEKAGQSDPFLGMIMGLGGGMDFDSKKAYRDVAWLGECDQGCLALAELLGWKKELEDLVRREHASIDAQSGAGVPNPSTSASPKKSPPPAKDEARTTEREKPQ
notes: also called F-SIRT2; not shown: Flag tag
Turning to B3, the binding result in experiment [1] was “no binding”.

B4: Flag-SIRT1 (enzyme, human, UniProt Q96EB6 1-747, looked up)
chain: MADEAALALQPGGSPSAAGADREAASSPAGEPLRKRPRRDGPGLERSPGEPGGAAPEREVPAAARGCPGAAAAALWREAEAEAAAAGGEQEAQATAAAGEGDNGPGLQGPSREPPLADNLYDEDDDDEGEEEEEAAAAAIGYRDNLLFGDEIITNGFHSCESDEEDRASHASSSDWTPRPRIGPYTFVQQHLMIGTDPRTILKDLLPETIPPPELDDMTLWQIVINILSEPPKRKKRKDINTIEDAVKLLQECKKIIVLTGAGVSVSCGIPDFRSRDGIYARLAVDFPDLPDPQAMFDIEYFRKDPRPFFKFAKEIYPGQFQPSLCHKFIALSDKEGKLLRNYTQNIDTLEQVAGIQRIIQCHGSFATASCLICKYKVDCEAVRGDIFNQVVPRCPRCPADEPLAIMKPEIVFFGENLPEQFHRAMKYDKDEVDLLIVIGSSLKVRPVALIPSSIPHEVPQILINREPLPHLHFDVELLGDCDVIINELCHRLGGEYAKLCCNPVKLSEITEKPPRTQKELAYLSELPPTPLHVSEDSSSPERTSPPDSSVIVTLLDQAAKSNDDLDVSESKGCMEEKPQEVQTSRNVESIAEQMENPDLKNVGSSTGEKNERTSVAGTVRKCWPNRVAKEQISRRLDGNQYLFLPPNRYIFHGAEVYSDSEDDVLSSSSCGSNSDSGTCQSPSLEEPMEDESEIEEFYNGLEDEPDVPERAGGAGFGTDGDDQEAINEAISVKQEVTDMNYPSNKS
notes: Expressed in 293 or H1299 cells, immunoprecipitated with M2 anti-Flag beads; also called F-SIRT1; Flag-tagged SIRT1; not shown: Flag tag
As for B4, in experiment [3], the binding result is given as “binds”.

B5: GST-SIRT1-NT (other, human, UniProt Q96EB6 1-210, looked up)
chain: MADEAALALQPGGSPSAAGADREAASSPAGEPLRKRPRRDGPGLERSPGEPGGAAPEREVPAAARGCPGAAAAALWREAEAEAAAAGGEQEAQATAAAGEGDNGPGLQGPSREPPLADNLYDEDDDDEGEEEEEAAAAAIGYRDNLLFGDEIITNGFHSCESDEEDRASHASSSDWTPRPRIGPYTFVQQHLMIGTDPRTILKDLLPETI
notes: domain: N-terminal; also called N-terminus of SIRT1; N-terminal domain of SIRT1; not shown: glutathione S-transferase (GST) fusion partner
In the case of B5, the binding result in experiment [2] was “no binding”.

B6: 14-3-3σ (other, human, UniProt P31947 1-248, looked up)
chain: MERASLIQKAKLAEQAERYEDMAAFMKGAVEKGEELSCEERNLLSVAYKNVVGGQRAAWRVLSSIEQKSNEEGSEEKGPEVREYREKVETELQGVCDTVLGLLDSHLIKEAGDAESRVFYLKMKGDYYRYLAEVATGDDKKRIIDSARSAYQEAMDISKKEMPPTNPIRLGLALNFSVFHYEIANSPEEAISLAKTTFDEAMADLHTLSEDSYKDSTLIMQLLRDNLTLWTADNAGEEGGEAPQEPQS
As to B6, the binding result in experiment [4] was “binds”.
